The chains are these.
B1: SLC19A2 (parent)
chain: IYPVWTYSYLVLLFPVFLATDYLR

Experimental findings from the supplement of paper PMC10567573 are described below.
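Note: lentivirally expressed fusions sorted by FACS into six bins by GFP to DsRed ratio, PSI derived from sequencing read proportions per bin multiplied by bin number.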

The variants in the data set derive from B1. The experiment in a line: protein stability index of a GFP-peptide fusion (GPS, HEK-293T) (PSI 1-6); higher = more stable. Conditions: c terminus: a fixed tail appended.
With IYPVWTFSYLVLLFPVFLATDYLR [Y7F], the protein stability index stood at 2.84.
Then IYPVWTNSYLVLLFPVFLATDYLR [Y7N], with 3.72; and IYPVWTISYLVLLFPVFLATDYLR [Y7I], with 2.4.
IYPVWTMSYLVLLFPVFLATDYLR [Y7M]: the protein stability index amounted to 2.32.
Then IYPVWTQSYLVLLFPVFLATDYLR [Y7Q], with 2.58; and IYPVWTTSYLVLLFPVFLATDYLR [Y7T], with 2.58; and IYPVWTESYLVLLFPVFLATDYLR [Y7E], with 3.72.
With IYPVWTRSYLVLLFPVFLATDYLR [Y7R], the protein stability index was found to be 3.07.
Then IYPVWTWSYLVLLFPVFLATDYLR [Y7W], with 3.7; and IYPVWTHSYLVLLFPVFLATDYLR [Y7H], with 1.33; and IYPVETYSYLVLLFPVFLATDYLR [W5E], with 3.02.
For IYPVITYSYLVLLFPVFLATDYLR [W5I], the protein stability index was found to be 4.83.
With IYPVNTYSYLVLLFPVFLATDYLR [W5N], the protein stability index is 2.25.
Under IYPVDTYSYLVLLFPVFLATDYLR [W5D] stands 2.3.
Then IYPVFTYSYLVLLFPVFLATDYLR [W5F], with 3.25; and IYPVATYSYLVLLFPVFLATDYLR [W5A], with 3.28.
Under IYPVKTYSYLVLLFPVFLATDYLR [W5K] stands 4.35; under IYPVGTYSYLVLLFPVFLATDYLR [W5G], 4.5.
For the variant IYPVMTYSYLVLLFPVFLATDYLR [W5M], the protein stability index is 2.65.
In the case of IYPVLTYSYLVLLFPVFLATDYLR [W5L], the protein stability index is 2.19.
Under IYPVCTYSYLVLLFPVFLATDYLR [W5C] stands 3.27; under IYPVPTYSYLVLLFPVFLATDYLR [W5P], 3.19.
Then IYPVHTYSYLVLLFPVFLATDYLR [W5H], with 3.15.
Under IYPVYTYSYLVLLFPVFLATDYLR [W5Y] stands 2.72; under IYPVVTYSYLVLLFPVFLATDYLR [W5V], 2.65; under IYPVSTYSYLVLLFPVFLATDYLR [W5S], 2.89.
As to IYPVRTYSYLVLLFPVFLATDYLR [W5R], the protein stability index was 3.39.
Regarding IYPVWTYSNLVLLFPVFLATDYLR [Y9N], the protein stability index was 3.02.
Under IYPVWTYSILVLLFPVFLATDYLR [Y9I] stands 3.67.
Under IYPVWTYSHLVLLFPVFLATDYLR [Y9H] stands 2.97; under IYPVWTYSKLVLLFPVFLATDYLR [Y9K], 2.81; under IYPVWTYSELVLLFPVFLATDYLR [Y9E], 2.2.
As for IYPVWTYSQLVLLFPVFLATDYLR [Y9Q], the protein stability index worked out at 2.02.
For the variant IYPVWTYSVLVLLFPVFLATDYLR [Y9V], the protein stability index came to 3.11.
Turning to IYPVWTYSDLVLLFPVFLATDYLR [Y9D], the protein stability index was determined as 3.8.
Then IYPVWTYSTLVLLFPVFLATDYLR [Y9T], with 2.67; and IYPVWTYSFLVLLFPVFLATDYLR [Y9F], with 1.75.
Under IYPVWTYSRLVLLFPVFLATDYLR [Y9R] stands 4.42.
Under IYPVWTYSCLVLLFPVFLATDYLR [Y9C] stands 4.17; under IYPVWTYSLLVLLFPVFLATDYLR [Y9L], 2.46.
As for IYPVWTYSMLVLLFPVFLATDYLR [Y9M], the protein stability index amounted to 2.97.
Then IYPVWTYSYLGLLFPVFLATDYLR [V11G], with 3.44; and IYPVWTYSYLCLLFPVFLATDYLR [V11C], with 3.16; and IYPVWTYSYLDLLFPVFLATDYLR [V11D], with 3.85.
Under IYPVWTYSYLALLFPVFLATDYLR [V11A] stands 3.63.
Then IYPVWTYSYLFLLFPVFLATDYLR [V11F], with 2.34; and IYPVWTYSYLHLLFPVFLATDYLR [V11H], with 3.87.
With IYPVWAYSYLVLLFPVFLATDYLR [T6A], the protein stability index amounted to 2.63.
Then IYPVWMYSYLVLLFPVFLATDYLR [T6M], with 2.95; and IYPVWKYSYLVLLFPVFLATDYLR [T6K], with 3.04; and IYPVWLYSYLVLLFPVFLATDYLR [T6L], with 4.55.
For IYPVWVYSYLVLLFPVFLATDYLR [T6V], the protein stability index was 2.9.
Under IYPVWEYSYLVLLFPVFLATDYLR [T6E] stands 2.71; under IYPVWSYSYLVLLFPVFLATDYLR [T6S], 2.86; under IYPVWRYSYLVLLFPVFLATDYLR [T6R], 2.39.
Then IYPVWDYSYLVLLFPVFLATDYLR [T6D], with 2.08.
Under IYPVWYYSYLVLLFPVFLATDYLR [T6Y] stands 3.51.
As for IYPVWQYSYLVLLFPVFLATDYLR [T6Q], the protein stability index came out at 2.73.
Under IYPVWHYSYLVLLFPVFLATDYLR [T6H] stands 3.42; under IYPVWNYSYLVLLFPVFLATDYLR [T6N], 3.48; under IYPSWTYSYLVLLFPVFLATDYLR [V4S], 3.21.
Under IYPTWTYSYLVLLFPVFLATDYLR [V4T] stands 3.3.
Under IYPYWTYSYLVLLFPVFLATDYLR [V4Y] stands 2.91; under IYPVWTYSYTVLLFPVFLATDYLR [L10T], 2.94; under IYPVWTYSYQVLLFPVFLATDYLR [L10Q], 2.81.
IYPVWTYSYGVLLFPVFLATDYLR [L10G]: the protein stability index was 3.23.
As for IYPVWTYSYNVLLFPVFLATDYLR [L10N], the protein stability index amounted to 4.14.
Consider IYPVWTYSYWVLLFPVFLATDYLR [L10W], for which the protein stability index is 3.88.
Then IYPVWTYSYYVLLFPVFLATDYLR [L10Y], with 3.63.
Under IYPVWTYSYPVLLFPVFLATDYLR [L10P] stands 2.29; under IYPVWTYSYKVLLFPVFLATDYLR [L10K], 1.93.
Under IYPVWTYSYMVLLFPVFLATDYLR [L10M] stands 2.85; under IYPVWTYSYIVLLFPVFLATDYLR [L10I], 2.9; under IYPVWTYSYVVLLFPVFLATDYLR [L10V], 3.74.
For IYPVWTYSYDVLLFPVFLATDYLR [L10D], the protein stability index came to 4.06.
Under IYPVWTYSYRVLLFPVFLATDYLR [L10R] stands 2.9; under IYPVWTYSYHVLLFPVFLATDYLR [L10H], 3.75; under IYPVWTYSYEVLLFPVFLATDYLR [L10E], 3.11.
Under IYPVWTYSYSVLLFPVFLATDYLR [L10S] stands 3.94; under IYPVWTYFYLVLLFPVFLATDYLR [S8F], 2.43; under IYPVWTYEYLVLLFPVFLATDYLR [S8E], 3.31.
Under IYPVWTYDYLVLLFPVFLATDYLR [S8D] stands 3.67; under IYPVWTYLYLVLLFPVFLATDYLR [S8L], 2.69.
On to IYPVWTYPYLVLLFPVFLATDYLR [S8P], for which the protein stability index turned out to be 3.7.
Take IYPVWTYIYLVLLFPVFLATDYLR [S8I]: the protein stability index was 2.41.
Then IYPVWTYAYLVLLFPVFLATDYLR [S8A], with 4.5; and IYPVWTYCYLVLLFPVFLATDYLR [S8C], with 3.17.
Then IYPVWTYMYLVLLFPVFLATDYLR [S8M], with 3.15; and IYPVWTYRYLVLLFPVFLATDYLR [S8R], with 3.57.
Regarding IYPVWTYWYLVLLFPVFLATDYLR [S8W], the protein stability index came to 2.99.
Under IYPVWTYGYLVLLFPVFLATDYLR [S8G] stands 2.84; under IYPVWTYKYLVLLFPVFLATDYLR [S8K], 3.14.
Under IYPVWTYQYLVLLFPVFLATDYLR [S8Q] stands 3.59.
Then IYPVWTYHYLVLLFPVFLATDYLR [S8H], with 3.06.
